Measured values from PMC3295762, “Gene Expression of the Tumour Suppressor LKB1 Is Mediated by Sp1, NF-Y and FOXO Transcription Factors”.

Legend:
GST-FOXO3 [1] = target: T1, GST-FOXO3 (UniProt O43524 1-673); test: EMSA; EMSA: 10% glycerol, 12 mM HEPES pH 7.9, 4 mM Tris-HCl pH 7.9, 60 mM KCl, 1 mM DTT, 0.6 mg/ml BSA, 0.5 ug poly(dI-dC), 20 ul, 30 min at 25 C; supershift 1 h at 4 C; conditions: protein: commercial; tags: GST; label: 32P; blunt
GST-FOXO3 [2] = target: T1, GST-FOXO3; test: competition; unlabeled excess vs N1 probe; EMSA: 10% glycerol, 12 mM HEPES pH 7.9, 4 mM Tris-HCl pH 7.9, 60 mM KCl, 1 mM DTT, 0.6 mg/ml BSA, 0.5 ug poly(dI-dC), 20 ul, 30 min at 25 C; supershift 1 h at 4 C; conditions: protein: commercial; tags: GST; blunt

T1 sequence (O43524 whole entry): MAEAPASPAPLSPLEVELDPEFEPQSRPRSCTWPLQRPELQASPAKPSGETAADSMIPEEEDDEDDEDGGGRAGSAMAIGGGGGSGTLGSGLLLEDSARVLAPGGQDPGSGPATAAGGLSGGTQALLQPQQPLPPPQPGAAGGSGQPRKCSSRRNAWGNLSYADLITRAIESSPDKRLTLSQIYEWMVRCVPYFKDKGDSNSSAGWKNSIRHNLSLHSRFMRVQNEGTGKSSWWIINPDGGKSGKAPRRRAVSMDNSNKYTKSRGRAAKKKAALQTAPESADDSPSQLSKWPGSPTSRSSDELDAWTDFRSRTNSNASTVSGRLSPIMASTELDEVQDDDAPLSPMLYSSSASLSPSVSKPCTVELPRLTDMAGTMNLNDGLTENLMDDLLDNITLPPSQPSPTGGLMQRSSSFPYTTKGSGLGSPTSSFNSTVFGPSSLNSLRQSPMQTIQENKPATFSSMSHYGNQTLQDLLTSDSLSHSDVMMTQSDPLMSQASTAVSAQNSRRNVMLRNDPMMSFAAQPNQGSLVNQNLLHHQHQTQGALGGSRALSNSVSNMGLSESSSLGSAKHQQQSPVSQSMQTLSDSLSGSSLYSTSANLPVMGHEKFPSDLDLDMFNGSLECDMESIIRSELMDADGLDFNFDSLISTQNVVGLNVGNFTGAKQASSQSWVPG

Row | Binder | binding result (GST-FOXO3 [1]) | binding result (GST-FOXO3 [2])
1 | LKB1 FOXO site oligo WT (dsDNA) DNA 1: GGGGAGGGAGGTAAACAAGATGGCGGC DNA 2: GCCGCCATCTTGTTTACCTCCCTCCCC | binds | –
2 | LKB1 FOXO site oligo mutant (dsDNA) DNA 1: GGGGAGGGAGGTAGCCAAGATGGCGGC DNA 2: GCCGCCATCTTGGCTACCTCCCTCCCC | – | no binding
